The values below come from publication PMC2118495.

Like-named read-outs stand apart in the source and are kept apart here.

What all share (experiment): native gel or EMSA
A general note: A gel shift assay detects complexes by their altered migration in electrophoresis.

The target in assay [1] is human TCRγδ (clonotypic heterodimer of the γδ TCR) (human (endogenous in PBMCs and γδ T cell clones)).
Assay [2] has as its target mouse TCRγδ (transgenic TCRVγ1.1 and TCRVδ6 chains) (mouse).
For assay [3] the target is unchanged. This is another data set of the same source.

Broadly, the stoichiometry N is a count of units in the complex or per binding partner. The molecule “human CD3γ (from UniProt P09693 23-182) (natural protein)” displayed a stoichiometry N in assay [1] of 1.
In the case of “human CD3δ (from UniProt P04234 22-171) (natural protein)”, the stoichiometry N in assay [1] came to 1.
As to “human CD3ε (from UniProt P07766 23-207) (natural protein)”, the stoichiometry N in assay [1] came out at 2.
In assay [1], “human ζ chain of the TCR (ζζ dimer) (from UniProt P20963 22-164) (natural protein)” returned a stoichiometry N of 2.
In assay [2], “mouse CD3ε (from UniProt P22646 22-189) (natural protein)” registered a stoichiometry N of 2.

B1: mouse CD3γ (natural protein)
chain: QTNKAKNLVQVDGSRGDGSVLLTCGLTDKTIKWLKDGSIISPLNATKNTWNLGNNAKDPRGTYQCQGAKETSNPLQVYYRMCENCIELNIGTISGFIFAEVISIFFLALGVYLIAGQDGVRQSRASDKQTLLQNEQLYQPLKDREYDQYSHLQGNQLRKK
In assay [3], B1 yielded a stoichiometry N of 2.
